From the supplement of paper PMC7877785
± gives the uncertainty stated by the source.

Experiment: self-splicing fitness, log relative to wild type (ln ratio); higher = more splicing; Tetrahymena group I intron in knt gene, E. coli kanamycin selection, DiMSum; sequences stand for … in CUCUCU…GGAGGGAAAAGUUAUCAGGCAUGCACCUGGUAGCUAGUCUUUAAACCAAUAGAUUGCAUCGGUUUAAAAGGCAAGACCGUCAAAUUGCGGGAAAGGGGUCAACAGCCGUUCAGUACCAAGUCUCAGGGGAAACUUUGAGAUGGCCUUGCAAAGGGUAUGGUAAUAAGCUGACGGACAUGGUCCUAACCACGCAGCCAAGUCCUAAGUCAACAGAUCUUCUGUUGAUAUGGAUGCAGUUCACAGACUAAAUGUCGGUCGGGGAAGAUGUAUUCUUCUCAUAAGAUAUAGUCGGACCUCUCCUUAAUGGGAGCUAGCGGAUGAAGUGAUGCAACACUGGAGCCGCUGGGAACUAAUUUGUAUGCGAAAGUAUAUUGAUUAGUUUUGGAGUACUCGUGGUCG
How it was run: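 The eight P1ex-region nucleotides of an intron in the knt kanamycin-resistance gene on pET-22b(+) were all randomised and the library put into E. coli BL21(DE3). Six replicate transformations were grown overnight at 37°C or 30°C on LB agar with or without 25 μg/mL kanamycin, together with 100 μg/mL carbenicillin, 50 μM IPTG and 0.2% rhamnose. Colonies were pooled and amplicon-sequenced on an Illumina HiSeq 2500. Fitness from DiMSum is the error-weighted combination of wild-type-normalised replicate fold changes, kanamycin over none.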

Sequence: UAAGAGCAAUAUUACGCAAU
- self-splicing fitness (ln) (30 °C): -3.35 ± 0.31
- self-splicing fitness (ln) (37 °C): -2.32 ± 0.27

Sequence: CGAUAGCAAUAUUACGUUUA
- self-splicing fitness (ln) (37 °C): -2.57 ± 0.21

Sequence: ACACAGCAAUAUUACGCAAG
- self-splicing fitness (ln) (30 °C): -1.7 ± 0.1
- self-splicing fitness (ln) (37 °C): -0.825 ± 0.11

Sequence: CAAUAGCAAUAUUACGAUAG
- self-splicing fitness (ln) (30 °C): -0.926 ± 0.069
- self-splicing fitness (ln) (37 °C): -0.00227 ± 0.1

Sequence: CUUCAGCAAUAUUACGGUAG
- self-splicing fitness (ln) (30 °C): -1.94 ± 0.12
- self-splicing fitness (ln) (37 °C): -0.92 ± 0.14

Sequence: AUCGAGCAAUAUUACGAAAA
- self-splicing fitness (ln) (30 °C): -3.6 ± 0.39
- self-splicing fitness (ln) (37 °C): -2.1 ± 0.32

Sequence: UACUAGCAAUAUUACGCGCA
- self-splicing fitness (ln) (30 °C): -0.569 ± 0.071
- self-splicing fitness (ln) (37 °C): 0.207 ± 0.094

Sequence: AAUGAGCAAUAUUACGGGGG
- self-splicing fitness (ln) (30 °C): -4.09 ± 0.42
- self-splicing fitness (ln) (37 °C): -1.32 ± 0.25

Sequence: AUCUAGCAAUAUUACGGCAC
- self-splicing fitness (ln) (30 °C): -1.5 ± 0.13
- self-splicing fitness (ln) (37 °C): -0.819 ± 0.17

Sequence: ACGUAGCAAUAUUACGCCGG
- self-splicing fitness (ln) (30 °C): -1.28 ± 0.11
- self-splicing fitness (ln) (37 °C): -0.915 ± 0.17

Sequence: ACAGAGCAAUAUUACGGGUA
- self-splicing fitness (ln) (30 °C): -2.47 ± 0.36
- self-splicing fitness (ln) (37 °C): -3 ± 0.31

Sequence: GUGCAGCAAUAUUACGACAG
- self-splicing fitness (ln) (30 °C): -2.83 ± 0.14
- self-splicing fitness (ln) (37 °C): -1.71 ± 0.16

Sequence: ACUUAGCAAUAUUACGGACA
- self-splicing fitness (ln) (30 °C): -1.46 ± 0.14
- self-splicing fitness (ln) (37 °C): -0.798 ± 0.14

Sequence: GGGCAGCAAUAUUACGGGUG
- self-splicing fitness (ln) (30 °C): -3.07 ± 0.14
- self-splicing fitness (ln) (37 °C): -1.71 ± 0.19

Sequence: CAAAAGCAAUAUUACGAUAA
- self-splicing fitness (ln) (30 °C): -2.29 ± 0.1
- self-splicing fitness (ln) (37 °C): -0.871 ± 0.099

Sequence: CUGAAGCAAUAUUACGUAAG
- self-splicing fitness (ln) (30 °C): -0.797 ± 0.08
- self-splicing fitness (ln) (37 °C): 0.0174 ± 0.086

Sequence: UAUGAGCAAUAUUACGUGGU
- self-splicing fitness (ln) (37 °C): -2.75 ± 0.31

Sequence: GCGCAGCAAUAUUACGGUUC
- self-splicing fitness (ln) (30 °C): -0.737 ± 0.077
- self-splicing fitness (ln) (37 °C): 0.0559 ± 0.082

Sequence: AGAAAGCAAUAUUACGUGCG
- self-splicing fitness (ln) (30 °C): -0.896 ± 0.092
- self-splicing fitness (ln) (37 °C): -0.684 ± 0.11

Sequence: CAUGAGCAAUAUUACGAGCU
- self-splicing fitness (ln) (30 °C): -2.78 ± 0.23

Sequence: ACGUAGCAAUAUUACGCCGA
- self-splicing fitness (ln) (30 °C): -1.34 ± 0.23
- self-splicing fitness (ln) (37 °C): -0.566 ± 0.18

Sequence: GAGGAGCAAUAUUACGACAG
- self-splicing fitness (ln) (30 °C): -1.38 ± 0.36
- self-splicing fitness (ln) (37 °C): -1.5 ± 0.39

Sequence: GGAAAGCAAUAUUACGCUCA
- self-splicing fitness (ln) (30 °C): -0.428 ± 0.12
- self-splicing fitness (ln) (37 °C): -0.303 ± 0.17

Sequence: UAUGAGCAAUAUUACGUAAU
- self-splicing fitness (ln) (30 °C): -2.35 ± 0.17
- self-splicing fitness (ln) (37 °C): -2.34 ± 0.35

Sequence: UGCGAGCAAUAUUACGAGUC
- self-splicing fitness (ln) (30 °C): -3.05 ± 0.21
- self-splicing fitness (ln) (37 °C): -2.27 ± 0.2

Sequence: GCACAGCAAUAUUACGGCCU
- self-splicing fitness (ln) (30 °C): -1.66 ± 0.11
- self-splicing fitness (ln) (37 °C): -0.461 ± 0.12

Sequence: AUCUAGCAAUAUUACGUUAG
- self-splicing fitness (ln) (30 °C): -3.26 ± 0.19
- self-splicing fitness (ln) (37 °C): -2.67 ± 0.24

Sequence: GACCAGCAAUAUUACGUAUU
- self-splicing fitness (ln) (30 °C): -0.471 ± 0.049
- self-splicing fitness (ln) (37 °C): -0.139 ± 0.062

Sequence: AGAUAGCAAUAUUACGCGAG
- self-splicing fitness (ln) (30 °C): -1.22 ± 0.1
- self-splicing fitness (ln) (37 °C): -1.03 ± 0.1

Sequence: GCUAAGCAAUAUUACGAAAU
- self-splicing fitness (ln) (30 °C): -1.64 ± 0.11
- self-splicing fitness (ln) (37 °C): -0.218 ± 0.1

Sequence: ACCAAGCAAUAUUACGGCAU
- self-splicing fitness (ln) (30 °C): -0.931 ± 0.049
- self-splicing fitness (ln) (37 °C): -0.0435 ± 0.066

Sequence: UUUAAGCAAUAUUACGACUG
- self-splicing fitness (ln) (30 °C): -0.203 ± 0.097
- self-splicing fitness (ln) (37 °C): 0.954 ± 0.12

Sequence: GCUCAGCAAUAUUACGCUAC
- self-splicing fitness (ln) (30 °C): -3.26 ± 0.17
- self-splicing fitness (ln) (37 °C): -2.69 ± 0.2

Sequence: CUGUAGCAAUAUUACGCACU
- self-splicing fitness (ln) (30 °C): -1.84 ± 0.37
- self-splicing fitness (ln) (37 °C): -2.25 ± 0.31

Sequence: AUGAAGCAAUAUUACGUUCC
- self-splicing fitness (ln) (30 °C): -0.618 ± 0.086
- self-splicing fitness (ln) (37 °C): -0.0585 ± 0.11

Sequence: GGAGAGCAAUAUUACGACUC
- self-splicing fitness (ln) (30 °C): -1.21 ± 0.23
- self-splicing fitness (ln) (37 °C): -0.0732 ± 0.34

Sequence: CGAUAGCAAUAUUACGUAGG
- self-splicing fitness (ln) (30 °C): -0.695 ± 0.056
- self-splicing fitness (ln) (37 °C): -0.444 ± 0.068

Sequence: CACAAGCAAUAUUACGCUAA
- self-splicing fitness (ln) (30 °C): -2.58 ± 0.18
- self-splicing fitness (ln) (37 °C): -1.82 ± 0.16
